What was measured:
Experiment in all cases: enzyme inhibition assay (fluorogenic substrate cleavage); one unit of active recombinant human caspase incubated with various concentrations of peptide inhibitor in 100 mM NaCl, 50 mM HEPES, 10 mM DTT, 1 mM EDTA, 10% glycerol, 0.1% CHAPS, pH 7.4, 37°C, 30 min; then 200 μM substrate (Ac-DEVD-MCA for caspases-3 and -7, Ac-IETD-MCA for caspase-8, Ac-LEHD-MCA for caspase-9); apparent Ki = IC50/(1+[S]/Km)
Conditions in all cases: both partners purified
[1] = target: T1, Recombinant human caspase-7 (active) (human, UniProt P55210 1-303)
T1 sequence (P55210 whole entry): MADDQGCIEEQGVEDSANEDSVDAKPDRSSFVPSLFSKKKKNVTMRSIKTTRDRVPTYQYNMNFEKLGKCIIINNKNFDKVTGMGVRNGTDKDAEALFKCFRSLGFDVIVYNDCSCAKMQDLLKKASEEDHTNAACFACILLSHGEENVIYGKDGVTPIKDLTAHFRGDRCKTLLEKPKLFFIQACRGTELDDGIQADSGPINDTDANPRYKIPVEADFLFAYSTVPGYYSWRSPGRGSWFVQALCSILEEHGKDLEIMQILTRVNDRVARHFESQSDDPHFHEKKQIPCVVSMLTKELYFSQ

[2] = target: Recombinant human caspase-8 (active) (human, UniProt Q14790 1-479)
Chain of Recombinant human caspase-8 (active) (Q14790 whole entry): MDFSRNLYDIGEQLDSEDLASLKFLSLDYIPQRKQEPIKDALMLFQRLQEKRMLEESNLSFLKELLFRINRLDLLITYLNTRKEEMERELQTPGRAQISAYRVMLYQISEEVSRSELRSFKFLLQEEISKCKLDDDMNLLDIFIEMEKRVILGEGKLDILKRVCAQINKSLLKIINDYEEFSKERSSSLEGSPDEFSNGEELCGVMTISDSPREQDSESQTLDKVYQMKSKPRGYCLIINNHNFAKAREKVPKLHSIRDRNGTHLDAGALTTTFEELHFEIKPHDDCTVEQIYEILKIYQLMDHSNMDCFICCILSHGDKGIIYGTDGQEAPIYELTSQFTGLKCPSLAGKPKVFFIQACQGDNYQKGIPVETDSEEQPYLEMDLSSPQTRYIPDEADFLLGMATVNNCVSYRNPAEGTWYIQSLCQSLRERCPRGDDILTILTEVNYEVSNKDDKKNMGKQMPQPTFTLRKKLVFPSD

[3] = target: T1, Recombinant human caspase-7 (active); remark: listed apart in the source
[4] = target: T2, Recombinant human caspase-3 (active) (human, UniProt P42574 1-277)
T2 sequence (P42574 whole entry): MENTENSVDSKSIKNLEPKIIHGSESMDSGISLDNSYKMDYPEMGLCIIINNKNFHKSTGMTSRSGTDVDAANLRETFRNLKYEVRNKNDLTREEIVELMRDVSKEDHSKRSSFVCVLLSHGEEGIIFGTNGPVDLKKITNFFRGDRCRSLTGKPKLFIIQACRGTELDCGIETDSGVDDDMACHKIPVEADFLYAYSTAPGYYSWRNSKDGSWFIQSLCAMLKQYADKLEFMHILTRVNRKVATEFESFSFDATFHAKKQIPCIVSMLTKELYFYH

[5] = target: T2, Recombinant human caspase-3 (active); remark: listed apart in the source

| Binder | IC50 [1] [µM] | Ki [2] [µM] | Ki [3] [µM] | Ki [4] [µM] | IC50 [5] [µM] |
| --- | --- | --- | --- | --- | --- |
| Ac-DEVD-aldehyde (source: bought: Peptide Institute, Inc (synthetic peptide)) [Ac-DEVD-CHO] | 0.0197 | 0.000597 ± 9.5e-05 | 0.00448 ± 0.00021 | – | – |
| Ac-DQTD-aldehyde (SMILES CC(=O)N[C@@H](CC(=O)O)C(=O)N[C@@H](CCC(N)=O)C(=O)N[C@H](C(=O)N[C@H](C=O)CC(=O)O)[C@@H](C)O, source: bought: Peptide Institute, Inc (synthetic peptide)) [Ac-DQTD-CHO] | – | 0.00975 ± 0.00109 | 0.0218 ± 0.0011 | 0.00127 ± 0.00011 | – |
| Ac-DNLD-aldehyde (tetrapeptide designed by the computational APF method; so far not known in any natural caspase substrate; source: synthetic peptide (synthesized by Peptide Institute, Inc)) [Ac-DNLD-CHO] | – | > 0.2 | – | – | – |
| Ac-DMQD-aldehyde (SMILES CSCC[C@H](NC(=O)[C@H](CC(=O)O)NC(C)=O)C(=O)N[C@@H](CCC(N)=O)C(=O)N[C@H](C=O)CC(=O)O, source: bought: Peptide Institute, Inc (synthetic peptide)) [Ac-DMQD-CHO] | – | > 0.2 | > 0.2 | 0.0133 ± 0.0003 | 0.193 |

— publication PMC1931592 (BMC Pharmacology, 2007)
